In patent publication EP2586797A2 (Medtronic, Inc., dated 2013):

What was measured:
[1] = molecular target: T1, Abeta42 beta amyloid peptide (UniProt P05067 672-713); test: competition ELISA, purified antibody against biotinylated 6E10 (chimeric mouse 6E10) on coated beta amyloid; the reference row itself
T1 construct: domain: Abeta42 beta amyloid peptide; also called Aβ42; Aβ

[2] = molecular target: T1, Abeta42 beta amyloid peptide; test: competition ELISA, purified antibody 0.003-16 ug/ml against biotinylated 6E10 (chimeric mouse 6E10) on coated beta amyloid, n=2
[3] = molecular target: T1, Abeta42 beta amyloid peptide; test: competition ELISA, purified antibody against biotinylated 6E10 on coated beta amyloid; normalised to the row 'Mouse' (chimeric mouse 6E10); <1 improved
[4] = molecular target: T1, Abeta42 beta amyloid peptide; test: competition ELISA, NS0 supernatant titrated against 0.25 ug/ml biotinylated mouse 6E10 (mouse MDT-2007) on coated beta amyloid; IC50 normalised to mouse 6E10 (=1; <1 improved)
[5] = molecular target: T1, Abeta42 beta amyloid peptide; test: competition ELISA, purified antibody on coated beta amyloid (Table 4), against the mouse reference

T1 sequence (P05067 672-713 limits assumed): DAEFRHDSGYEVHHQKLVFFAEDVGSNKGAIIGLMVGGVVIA

B1: mouse 6E10 anti-Aβ antibody (antibody, V domains shown)
VH: EVQLQQSGAELVKPGASVKLSCTASGFNIKDTYIHWVKQRPEQGLEWIGRFDPVNVNTRYDSRFRGKATITSDASSNTAYLHLNSLTSEDTAVYYCSRSYYNGRRRFTYWGQGTLVTVSA
VL: DIVMTQSPSSLTVTAGEKVALTCKASQSLLSSGNQKNYLTWYQQKPGQPPKLLIYWASIRESGVPDRFTGSGSGTFFTLTISSVQAEDLAVYYCQNDYNYPFTFGSGTKLEIK
notes: Murine monoclonal from hybridoma 6E10 (Covance); also called 6E10 mouse antibody
- Fold Difference (IC50 normalised to the reference) [1]: 1 fold
- IC50 [2]: 3.6 µg/mL

B2: Composite human antibody variant VH4/VK1 (antibody, human IgG1, V domains shown)
VH: QVQLVQSGAEVKKPGASVKVSCTASGFNIKDTYIHWVRQARGQRLEWIGRFDPVNVNTRYDSRFRGRVTITSDASTNTAYMELSSLRSEDTAVYYCSRSYYNGRRRFTYWGQGTLVTVSS
VL: DIVMTQSPDSLTVSLGERATINCKASQSLLSSGNQKNYLTWYQQKPGQPPKLLIYWASIRESGVPDRFTGSGSGTFFTLTISSLQAEDVAVYYCQNDYNYPFTFGQGTKLEIK
notes: Human IgG1/kappa (pANT15/pANT13), NS0 cells; also called VH4/YK1
- Fold Difference (IC50 normalised to the reference) [3]: 1.14 fold
- IC50 [2]: 4.1 µg/mL
- fold difference in IC50 relative to mouse 6E10 [4]: 0.94 fold

B3: MDT-2007 (composite human antibody sequence variant VH4/VK2) (antibody, human IgG1, V domains shown)
VH: QVQLVQSGAEVKKPGASVKVSCTASGFNIKDTYIHWVRQARGQRLEWIGRFDPVNVNTRYDSRFRGRVTITSDASTNTAYMELSSLRSEDTAVYYCSRSYYNGRRRFTYWGQGTLVTVSS
VL: DIVMTQSPSSLTASVGDRVTITCKASQSLLSSGNQKNYLTWYQQKPGQPPKLLIYWASIRESGVPDRFTGSGSGTFFTLTISSLQAEDVAVYYCQNDYNYPFTFGQGTKLEIK
notes: Human IgG1/kappa (pANT15/pANT13), NS0 cells
- Fold Difference (IC50 normalised to the reference) [3]: 0.57 fold
- IC50 [2]: 2.1 µg/mL
- fold increase in binding compared to the mouse reference [5]: 1.72 fold
- fold difference in IC50 relative to mouse 6E10 [4]: 0.67 fold

B4: Composite human antibody variant VH5/VK2 (antibody, human IgG1, V domains shown)
VH: QVQLVQSGAEVKKPGASVKVSCTASGFNIKDTYIHWVRQARGQRLEWIGRFDPVNVNTRYDSRFRGRVTITSDASTSTAYMELSSLRSEDTAVYYCSRSYYNGRRRFTYWGQGTLVTVSS
VL: DIVMTQSPSSLTASVGDRVTITCKASQSLLSSGNQKNYLTWYQQKPGQPPKLLIYWASIRESGVPDRFTGSGSGTFFTLTISSLQAEDVAVYYCQNDYNYPFTFGQGTKLEIK
notes: as for B3
- Fold Difference (IC50 normalised to the reference) [3]: 0.72 fold
- IC50 [2]: 2.6 µg/mL
- fold difference in IC50 relative to mouse 6E10 [4]: 0.72 fold

B5: Composite human antibody variant VH5/VK1 (antibody, human IgG1, V domains shown)
VH: QVQLVQSGAEVKKPGASVKVSCTASGFNIKDTYIHWVRQARGQRLEWIGRFDPVNVNTRYDSRFRGRVTITSDASTSTAYMELSSLRSEDTAVYYCSRSYYNGRRRFTYWGQGTLVTVSS
VL: DIVMTQSPDSLTVSLGERATINCKASQSLLSSGNQKNYLTWYQQKPGQPPKLLIYWASIRESGVPDRFTGSGSGTFFTLTISSLQAEDVAVYYCQNDYNYPFTFGQGTKLEIK
notes: Human IgG1/kappa (pANT15/pANT13), NS0 cells; also called VH5/YK1
- Fold Difference (IC50 normalised to the reference) [3]: 0.91 fold
- IC50 [2]: 3.3 µg/mL
- fold difference in IC50 relative to mouse 6E10 [4]: 0.8 fold
